In the supplement of paper PMC12042874:
± gives the uncertainty stated by the source.

Test: amyloid nucleation score (Sup35N fusion, yeast selection) (log enrichment); library NNK2; higher = more nucleation; inactive = no reads after selection
Outline: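 Output and input plasmid inserts were sequenced by Illumina after psi-negative yeast carrying Sup35N fused to peptides of 20 random codons had been induced 24 hours with 100 μM copper sulfate and grown 7 days at 30°C on medium lacking adenine and uracil. The nucleation score is the DiMSum log enrichment of output over input reads, centred on the mode score of non-aggregating sequences. Sequences with under 100 input reads were excluded.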

| Substance | amyloid nucleation score |
| --- | --- |
| IISPVGVRMAYL | 0.176 ± 0.37 |
| IISTIT | 1.49 ± 0.14 |
| IITYVLLFNKFNTGVCE | 7.393 ± 0.049 |
| IIVNMKLVDTS | 0.138 ± 1.1 |
| IIYNKSW | 2.77 ± 0.094 |
| IKCLYV | -0.127 ± 1 |
| IKCWAPLNCSGGLVGHDQAV | -0.562 ± 0.44 |
| IKMRNPSSRSSASGQQRGHV | 0.167 ± 0.26 |
| IKQSYTYNPK | 1.87 ± 0.12 |
| ILALNWLFSICST | 6.903 ± 0.035 |
| ILANFFCGDRNCL | 7.128 ± 0.036 |
| ILAVKHFRFMVGSKISGGSG | 2.15 ± 0.094 |
| ILDCLSYQLDDVVSAI | 3.21 ± 0.046 |
| ILGDRSRSS | 0.388 ± 0.62 |
| ILIRLLGSRKQSWNYEIKVL | -0.645 ± 0.37 |
| ILIRLLTKVLTMLNDMH | 0.136 ± 0.65 |
| ILISRIFIFDNYMIYLCCCG | -0.762 ± 0.79 |
| ILISVRNYIKSEKSRNSYHK | 7.673 ± 0.03 |
| ILLPSFRPLRQAAAG | -0.311 ± 0.79 |
| ILQVPRTFFIRSHRSSVHL | inactive |
| ILRCLNLYMRSIMRVELSIQ | 0.461 ± 0.8 |
| ILSAFV | -0.16 ± 0.36 |
| ILSNELFYLLYEW | 8.798 ± 0.079 |
| ILVEGET | -0.263 ± 0.33 |
| ILVNLVVVIKSSYRLSKCRF | -0.67 ± 1.1 |
| ILWWFRVTAHAWEDETGWMW | 0.098 ± 0.23 |

| Substance | amyloid nucleation score |
| --- | --- |
| ILYGCLLPCLHLRGHPLVLK | 0.42 ± 0.33 |
| IMCLKFLNPTHFGCVGVCML | -1.22 ± 0.41 |
| IMHCVHKSRILSSVTKIKEP | inactive |
| IMIILLVSVTKSNFTPQSMC | 2.26 ± 0.23 |
| IMNMCISDKFSIVVSSYVRY | 0.958 ± 0.36 |
| IMNSQVVGSFHA | -0.357 ± 0.37 |
| IMYWRGFWLFASLFTILWWF | inactive |
| INFYIDIWISIRREGFAFRP | 1.97 ± 0.25 |
| INHDFQTHVL | 0.154 ± 0.65 |
| INLRMCGFYTSFDLNWRRKW | 4.981 ± 0.049 |
| INNLRSCLSMY | 0.562 ± 0.57 |
| INWCYAPRLYFNHRWWDYCG | 6.586 ± 0.054 |
| IPFASLNEFTSATY | 3.07 ± 0.1 |
| IPFRFDMSRSFISSTFTVRI | -0.533 ± 0.63 |
| IPLRHVLLVMQCRPAL | 0.915 ± 0.23 |
| IPNVPCIRGVSYSDFFTSSY | -0.044 ± 0.61 |
| IPWNQRRKW | 0.671 ± 0.16 |
| IPWVNRTPCSTCGGFRFTDP | 3.53 ± 0.08 |
| IPYLDYMTMH | 0.082 ± 0.22 |
| IQPPQFFAFI | inactive |
| IQVASRRIIM | 0.063 ± 0.21 |
| IQWYNLYTENRMISKLRGSW | -0.547 ± 1.1 |
| IREGMWCSRGMHHTRLRDFS | 0.671 ± 0.64 |
| IRFVESSQMKVLPRGGVGLN | inactive |
| IRKCRSHSFSRFRRHFS | 0.285 ± 1 |
| IRLPPRRAFHNEFFVDLHRG | -1.91 ± 0.76 |

| Substance | amyloid nucleation score |
| --- | --- |
| IRMNIFASSTR | 3.11 ± 0.073 |
| IRNLLCVSYGCTGYMMVGHG | 4.68 ± 0.063 |
| IRNVSYDMGCELSHDMVRSR | 0.044 ± 1.1 |
| IRPINGSWGVSTNCKVYDYV | -0.011 ± 1.1 |
| IRPLFTVLGRKTRQIFTM | -0.283 ± 1 |
| IRQFDIDITNARNKG | -1.62 ± 0.62 |
| IRRTPHLISFLRKLCEYWIE | inactive |
| IRVICRIWCLFLSL | 0.087 ± 0.55 |
| IRWGNRLTLERGFFKPFY | inactive |
| IRWNDSYKKECHIFFWRNRE | inactive |
| IRWNTTFGFDSEAPTCCATS | 0.026 ± 0.8 |
| IRYFR | 0.371 ± 0.13 |
| ISDLFYANLLVIASNMVT | -1.46 ± 0.78 |
| ISETLASSVWRRCVSCGYVM | 3.93 ± 0.075 |
| ISFYFSAWDKTVQTRRYIDH | -0.356 ± 0.33 |
| ISFYYWLARPCLFVSKIEGA | 3.54 ± 0.062 |
| ISGVVFSTTRLLQFDGCRVG | 1.31 ± 0.52 |
| ISIYIITVILFLVDALYMLR | -0.809 ± 1.1 |
| ISMTL | 6.15 ± 0.081 |
| ISNLQGFLLQNSDLAHSWVA | 1.28 ± 0.15 |
| ISRIIVPDSRLAYGEWFEIV | 1.53 ± 0.58 |
| ISSSSKVD | -0.706 ± 0.29 |
| ISVDTRFGLNVCFEGCCAYR | 7.449 ± 0.062 |
| ISVPYGVKGSSACMNGLGVT | 0.318 ± 0.8 |
| ISWIFLKSAFTELAVFWDFI | 0.726 ± 0.46 |
| ISYVCGPFICVLNLFYQI | 6.04 ± 0.066 |

| Substance | amyloid nucleation score |
| --- | --- |
| ITCLWRAWNAVLRRGHYKTS | 0.615 ± 0.51 |
| ITFRTYILPDSWIRPRTFEK | 3.29 ± 0.054 |
| ITISLLLGHYDCCCVTLLQE | 7.263 ± 0.027 |
| ITLSSS | 0.853 ± 0.2 |
| ITSICGIIE | inactive |
| IVCITTSNVLTCDIDGNITK | 4.27 ± 0.044 |
| IVFVLLSYYLL | 3.4 ± 0.037 |
| IVGHM | -0.5 ± 0.21 |
| IVGVSFKSVNTNRIDPVFLF | inactive |
| IVHYGETNG | 0.494 ± 0.38 |
| IVMCTRRDIA | -0.577 ± 0.56 |
| IVRVSEPIEVHVHVNAVYSV | 4.68 ± 0.083 |
| IVVQWMYVF | -0.382 ± 0.33 |
| IVYLWRNRWVDLADYLLHVM | 0.313 ± 0.29 |
| IVYYG | 0.801 ± 0.38 |
| IWGPVLYIMSGYSSVVTRF | 6.561 ± 0.055 |
| IWHFYIACLGVSNESISGFG | 6.77 ± 0.068 |
| IWLLHQCSLATLGFC | -1.25 ± 0.62 |
| IWPSRSGCVSVASVRI | 0.98 ± 0.33 |
| IWSYSSFGVD | -0.064 ± 1.1 |
| IYCHPLRYVLFIVSYRVSSA | 0.259 ± 0.56 |
| IYEQPG | 0.012 ± 0.54 |
| IYFFSVF | inactive |
| IYGLYG | 0.515 ± 0.51 |
| IYGQCWVFQNLLRLRVSV | 0.119 ± 0.76 |
| IYIAKW | -0.656 ± 0.33 |

| Substance | amyloid nucleation score |
| --- | --- |
| IYLHFGNLLNYFETRRTVFR | 6.19 ± 0.087 |
| IYQVRLYD | -0.923 ± 0.5 |
| IYTWSIRIYRF | -0.778 ± 0.48 |
| IYVVMFSKRLNSNFW | -1.62 ± 0.62 |
| IYYGGLKHARVPVTRFEGSP | 3.87 ± 0.098 |
| KAKIATKVSLFLLSGYVDLQ | -0.356 ± 0.65 |
| KALCLYNVVRKKRCT | 0.152 ± 0.5 |
| KALFLCILMLSASAFQEECH | 4.47 ± 0.085 |
| KAVVMLI | -1.09 ± 0.31 |
| KAWTLVRHDVLLYV | -0.316 ± 0.44 |
| KCCVENCRWHGRLSSLLFAM | 0.576 ± 0.34 |
| KCGEKRMKCFSDCRRWWLCQ | 4.88 ± 0.068 |
| KCGSSVVYFIVYQRKLKWGW | 0.961 ± 0.81 |
| KCLSRTQTYACSP | 1.78 ± 0.21 |
| KCVSRISSGR | 1.03 ± 0.66 |
| KCVVRAVA | 2.23 ± 0.24 |
| KCYLVLRG | 3.08 ± 0.17 |
| KDRRRVDMLRLGR | 1.36 ± 0.26 |
| KEFYGKRIFRCLYDVLVVLF | -1.25 ± 0.54 |
| KEMAFVRGMTARPRYNVNSE | 1.22 ± 0.29 |
| KFCCT | 3.47 ± 0.1 |
| KFFMDYNGILDFWFRTREKD | -0.375 ± 0.74 |
| KFGLPREYNSSVPVGPASCL | 0.272 ± 0.41 |
| KFMVLITVRMIVIRPVSVRS | 0.647 ± 0.58 |
| KFNGPKIVYFISTSMVLLVS | -0.406 ± 1.1 |
| KFPYVHLVFLARIYSF | -0.536 ± 1.1 |

| Substance | amyloid nucleation score |
| --- | --- |
| KFTLGHVNIVWNMVVYATQE | 8.24 ± 0.083 |
| KGAMA | 0.539 ± 0.39 |
| KGMNCVCACAINRPYSIVLQ | 1.41 ± 0.15 |
| KGSGRSQLSSIVCVFFGQTV | -0.292 ± 0.49 |
| KHCMCYLLWNI | -0.422 ± 1.1 |
| KHRRYFFCVGSIRWASVYKT | inactive |
| KHSDSTGARQWGNNVYKLDD | 0.366 ± 0.2 |
| KICSYPR | 2.46 ± 0.11 |
| KIEGHGFYYLFNWTA | -0.833 ± 0.78 |
| KIKPLIIKNMCGNNTGPGIQ | inactive |
| KILFPVR | -0.927 ± 1 |
| KITCVITNALCSLTERADR | 9.394 ± 0.069 |
| KIWDCSMYTF | -1.07 ± 0.55 |
| KIWMSLHLRELRLC | 0.569 ± 0.12 |
| KKFSSMYRSEFGNSI | -0.65 ± 0.41 |
| KKNEIEVECGPNCGTGTLVF | 5.04 ± 0.054 |
| KKSSVPTSYLYVNENFLTVL | 6.965 ± 0.054 |
| KKVVLRPS | 4.97 ± 0.051 |
| KLGFWVGSWLSSRSVDCSCM | 1.33 ± 0.35 |
| KLGIDRGTVCLWLSV | 0.401 ± 0.14 |
| KLGLSSIHFSGSMFVRCTFC | 4.503 ± 0.041 |
| KLHRLTGGHYDPNCDNGPVD | 3.68 ± 0.059 |
| KLHSVQLNTRVLIN | 0.219 ± 0.26 |
| KLIVMGTNPGRVGNGWKRKS | 0.53 ± 0.3 |
| KLMVPA | 0.248 ± 0.28 |
| KLSLNVLGSRSERWLLLFSC | -0.291 ± 0.79 |

| Substance | amyloid nucleation score |
| --- | --- |
| KLTFTVMYTFCKVLSRDVAC | 3.1 ± 0.1 |
| KLVDLKVRFDSHLDNLEVAL | -0.204 ± 0.46 |
| KLVISAFPPIRNMVYTKCSK | -0.446 ± 1.1 |
| KMKAGAMWCGSRIASKSRRG | 1.51 ± 0.15 |
| KMLPSGARDLMPMDLLDFMM | -0.234 ± 0.25 |
| KMSVLG | -0.936 ± 0.64 |
| KMTLLFARQFGV | 2.93 ± 0.12 |
| KMYYGSKNTKSDLARTYGTL | 1.61 ± 0.44 |
| KNCVHE | -0.076 ± 0.79 |
| KNFSCVN | 0.706 ± 0.74 |
| KNKTL | 0.576 ± 0.46 |
| KNLDQYCCCFNALTLSVSRS | 7.473 ± 0.051 |
| KNSIDQVTWTCNRYLKLVLS | -0.402 ± 0.39 |
| KNSLKVLLNRRLRVCGSQLN | -0.309 ± 0.45 |
| KNWVYVAWRRENYEQPFIR | -0.299 ± 1 |
| KNYGYNIN | 1.83 ± 0.17 |
| KPAERLFKCRSTE | 0.014 ± 0.49 |
| KPDCVLTTGFTSSLRFIMKK | -0.007 ± 0.55 |
| KPDTMNFWVVLALNFDLGRT | 2.77 ± 0.099 |
| KQGKRSTAHRSIVPLSFRH | 1.58 ± 0.14 |
